Data published in patent US20200040059A1.
“And” between values parts separate entries of the source, which are not always exact repeats. Identical values can stand only once.

What was measured:
[1] = molecular target: human PD-L1, full length, on transfected HEK293 cells (human) (UniProt Q9NZQ7); test: flow cytometry, Fc fusion at 22.2 nM on HEK293 cells transfected with PD-L1
[2] = molecular target: T1, CD96 (UniProt P40200); test: flow cytometry, cells expressing target, 25 nM
T1 sequence (looked up): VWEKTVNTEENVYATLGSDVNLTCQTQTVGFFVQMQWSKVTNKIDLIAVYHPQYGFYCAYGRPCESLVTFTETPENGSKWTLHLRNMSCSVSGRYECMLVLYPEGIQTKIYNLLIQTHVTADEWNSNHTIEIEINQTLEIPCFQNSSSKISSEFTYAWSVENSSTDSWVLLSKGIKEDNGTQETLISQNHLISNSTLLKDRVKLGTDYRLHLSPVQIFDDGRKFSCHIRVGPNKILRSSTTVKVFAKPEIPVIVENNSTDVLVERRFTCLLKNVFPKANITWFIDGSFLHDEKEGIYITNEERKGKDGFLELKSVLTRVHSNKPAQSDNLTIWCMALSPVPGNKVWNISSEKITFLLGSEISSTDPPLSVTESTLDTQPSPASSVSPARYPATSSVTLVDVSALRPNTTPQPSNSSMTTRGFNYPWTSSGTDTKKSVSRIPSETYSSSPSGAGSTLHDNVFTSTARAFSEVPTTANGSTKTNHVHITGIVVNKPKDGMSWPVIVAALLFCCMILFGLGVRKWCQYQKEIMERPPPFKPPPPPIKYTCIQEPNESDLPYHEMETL

[3] = molecular target: T2, CD226 (human) (UniProt Q15762); test: flow cytometry, cells expressing target, 25 nM
T2 sequence: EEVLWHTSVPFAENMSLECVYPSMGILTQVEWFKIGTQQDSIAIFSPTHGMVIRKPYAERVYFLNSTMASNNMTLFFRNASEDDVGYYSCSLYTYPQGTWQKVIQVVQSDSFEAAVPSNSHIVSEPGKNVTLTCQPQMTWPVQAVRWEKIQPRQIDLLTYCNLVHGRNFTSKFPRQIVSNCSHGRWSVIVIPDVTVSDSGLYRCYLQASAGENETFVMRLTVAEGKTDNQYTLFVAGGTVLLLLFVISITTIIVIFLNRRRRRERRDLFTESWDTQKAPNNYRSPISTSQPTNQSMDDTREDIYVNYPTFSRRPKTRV

[4] = molecular target: CD96, expressed on transfected cells (UniProt P40200); test: flow cytometry on transfected cells
[5] = molecular target: T3, human CD226, full length, expressed on transfected cells (human) (UniProt Q15762); test: flow cytometry on transfected cells
T3 sequence: T2 sequence

[6] = molecular target: CD112R, expressed on transfected cells (human) (UniProt Q6DKI7); test: flow cytometry on transfected cells
CD112R, expressed on transfected cells (human), sequence (Q6DKI7 whole entry): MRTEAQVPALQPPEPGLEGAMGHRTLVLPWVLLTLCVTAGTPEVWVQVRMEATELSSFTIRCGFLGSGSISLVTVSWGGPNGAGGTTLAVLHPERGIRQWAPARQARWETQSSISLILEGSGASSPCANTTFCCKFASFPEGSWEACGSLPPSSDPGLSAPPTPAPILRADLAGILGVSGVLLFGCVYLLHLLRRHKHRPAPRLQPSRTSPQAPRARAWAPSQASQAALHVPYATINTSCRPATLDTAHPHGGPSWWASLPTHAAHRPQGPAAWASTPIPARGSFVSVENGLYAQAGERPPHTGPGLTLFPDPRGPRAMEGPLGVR

[7] = molecular target: CD112R (human) (UniProt Q6DKI7); test: flow cytometry, cells expressing target, 25 nM
CD112R (human), sequence (Q6DKI7 whole entry): as above

[8] = molecular target: CD80 (Homo sapiens (Human)) (UniProt P33681); test: flow cytometry, cells expressing CD80
CD80 (Homo sapiens (Human)), sequence (P33681 35-288 limits assumed): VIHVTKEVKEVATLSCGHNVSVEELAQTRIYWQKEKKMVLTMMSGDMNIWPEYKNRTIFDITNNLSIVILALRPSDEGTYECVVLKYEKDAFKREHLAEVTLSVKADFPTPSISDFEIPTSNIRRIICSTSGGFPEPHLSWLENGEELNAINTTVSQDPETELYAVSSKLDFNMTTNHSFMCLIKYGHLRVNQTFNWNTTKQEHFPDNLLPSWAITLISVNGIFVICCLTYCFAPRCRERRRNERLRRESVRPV

CD112-IgV, sequence (Q92692 32-156 limits assumed): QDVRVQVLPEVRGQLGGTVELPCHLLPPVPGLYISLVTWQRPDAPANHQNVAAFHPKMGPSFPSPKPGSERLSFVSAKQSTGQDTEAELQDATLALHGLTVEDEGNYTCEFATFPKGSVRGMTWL

## CD80 variant IgV-Fc E35D/A71D/L72V (from UniProt P33681 35-141) (Fc fusion)
[1]
  MFI at 22.2 nM: 13100 MFI

## CD80 variant IgV-Fc E35D/M47I/L70M (from UniProt P33681 35-141) (Fc fusion)
[1]
  MFI at 22.2 nM: 49100 MFI

## CD112-IgV (from UniProt Q92692 32-156) (Fc fusion)
[2]
  MFI at 25 nM: 1170 MFI
[3]
  MFI at 25 nM: 824 MFI

## CD155 variant G111R IgV-Fc (from UniProt P15151 24-139) (Fc fusion)
[4]
  MFI at 100 nM: 3320
[5]
  MFI at 100 nM: 2790
[6]
  MFI at 100 nM: 2470

## CD155 variant IgV-Fc P18S, L21M, Y30F, N35D, R84W, F91S, T107M, D116G (from UniProt P15151 24-139) (Fc fusion)
[2]
  MFI at 25 nM: 1030 MFI
[7]
  MFI at 25 nM: 946 MFI
[3]
  MFI at 25 nM: 743 MFI

## CD155 variant IgV-Fc P18S, P34S, E51V, L79P, F91S, G111R (from UniProt P15151 24-139) (Fc fusion)
[2]
  MFI at 25 nM: 892 MFI
[7]
  MFI at 25 nM: 853 MFI
[3]
  MFI at 25 nM: 769 MFI

## CD155 variant IgV-Fc P18S, S42T, E51G, L79P, F91S, G92W, T107M (from UniProt P15151 24-139) (Fc fusion)
[2]
  MFI at 25 nM: 1050 MFI and 924 MFI
[7]
  MFI at 25 nM: 857 MFI and 935 MFI
[3]
  MFI at 25 nM: 707 MFI and 851 MFI

## CD155 variant IgV-Fc P18S, W46R, E68D, L79P, F91S, T107M, R113G (from UniProt P15151 24-139) (Fc fusion)
[2]
  MFI at 25 nM: 737 MFI
[7]
  MFI at 25 nM: 798 MFI
[3]
  MFI at 25 nM: 717 MFI

## CD155 variant IgV-Fc T15I, P18S, V33M, N35F, T39S, M55L, R78S, L79P, F91S, T107M (from UniProt P15151 24-139) (Fc fusion)
[2]
  MFI at 25 nM: 2710 MFI
[7]
  MFI at 25 nM: 789 MFI
[3]
  MFI at 25 nM: 1020 MFI

## CD155 variant Q62F, L104E, G111R IgV-Fc (from UniProt P15151 24-139) (Fc fusion)
[4]
  MFI at 100 nM: 1520
[5]
  MFI at 100 nM: 2040
[6]
  MFI at 100 nM: 1700

## CD155 variant S42A IgV-Fc (from UniProt P15151 24-139) (Fc fusion)
[4]
  MFI at 100 nM: 1620
[5]
  MFI at 100 nM: 2190
[6]
  MFI at 100 nM: 1730

## CD155 variant S42A, L104Q, G111R IgV-Fc (from UniProt P15151 24-139) (Fc fusion)
[4]
  MFI at 100 nM: 1700
[5]
  MFI at 100 nM: 1900
[6]
  MFI at 100 nM: 1820

## CD155 variant S42A, S52Q, L104Q, G111R IgV-Fc (from UniProt P15151 24-139) (Fc fusion)
[4]
  MFI at 100 nM: 1640
[5]
  MFI at 100 nM: 2160
[6]
  MFI at 100 nM: 1890

## CD155 variant S42C IgV-Fc (from UniProt P15151 24-139) (Fc fusion)
[4]
  MFI at 100 nM: 1590
[5]
  MFI at 100 nM: 2100
[6]
  MFI at 100 nM: 1680

## CD155 variant S42C, S52L IgV-Fc (from UniProt P15151 24-139) (Fc fusion)
[4]
  MFI at 100 nM: 1480
[5]
  MFI at 100 nM: 2150
[6]
  MFI at 100 nM: 1660

## CD155 variant S42C, S52M, Q62F IgV-Fc (from UniProt P15151 24-139) (Fc fusion)
[4]
  MFI at 100 nM: 1480
[5]
  MFI at 100 nM: 2080
[6]
  MFI at 100 nM: 1590

## CD155 variant S42G, S52L, Q62F, L104Q IgV-Fc (from UniProt P15151 24-139) (Fc fusion)
[4]
  MFI at 100 nM: 1640
[5]
  MFI at 100 nM: 2160
[6]
  MFI at 100 nM: 1660

## CD155 variant S42G, S52Q, L104E, G111R IgV-Fc (from UniProt P15151 24-139) (Fc fusion)
[4]
  MFI at 100 nM: 1710
[5]
  MFI at 100 nM: 2020
[6]
  MFI at 100 nM: 1710

## CD155 variant S42L IgV-Fc (from UniProt P15151 24-139) (Fc fusion)
[4]
  MFI at 100 nM: 1620
[5]
  MFI at 100 nM: 2190
[6]
  MFI at 100 nM: 1740

## CD155 variant S42L, S52L, Q62F, L104Q IgV-Fc (from UniProt P15151 24-139) (Fc fusion)
[4]
  MFI at 100 nM: 2320
[5]
  MFI at 100 nM: 2640
[6]
  MFI at 100 nM: 1730

## CD155 variant S42L, S52Q, L104E IgV-Fc (from UniProt P15151 24-139) (Fc fusion)
[4]
  MFI at 100 nM: 1700
[5]
  MFI at 100 nM: 6470
[6]
  MFI at 100 nM: 1750

## CD155 variant S42N IgV-Fc (from UniProt P15151 24-139) (Fc fusion)
[4]
  MFI at 100 nM: 1690
[5]
  MFI at 100 nM: 1910
[6]
  MFI at 100 nM: 1700

## CD155 variant S42N, S52E, V57L, L104E IgV-Fc (from UniProt P15151 24-139) (Fc fusion)
[4]
  MFI at 100 nM: 1540
[5]
  MFI at 100 nM: 1740
[6]
  MFI at 100 nM: 1690

## CD155 variant S42Q IgV-Fc (from UniProt P15151 24-139) (Fc fusion)
[4]
  MFI at 100 nM: 2140
[5]
  MFI at 100 nM: 2230
[6]
  MFI at 100 nM: 1910

## CD155 variant S42V, S52E IgV-Fc (from UniProt P15151 24-139) (Fc fusion)
[4]
  MFI at 100 nM: 2530
[5]
  MFI at 100 nM: 2270
[6]
  MFI at 100 nM: 1810

## CD155 variant S42W, S52Q, V57L, Q62Y IgV-Fc (from UniProt P15151 24-139) (Fc fusion)
[4]
  MFI at 100 nM: 1700
[5]
  MFI at 100 nM: 2140
[6]
  MFI at 100 nM: 1840

## CD155 variant S42W, S52R, Q62Y, L104Q IgV-Fc (from UniProt P15151 24-139) (Fc fusion)
[5]
  MFI at 100 nM: 2300
[6]
  MFI at 100 nM: 1820

## CD155 variant S52M IgV-Fc (from UniProt P15151 24-139) (Fc fusion)
[5]
  MFI at 100 nM: 1900
[6]
  MFI at 100 nM: 1550

## CD155 variant S52M, Q62Y IgV-Fc (from UniProt P15151 24-139) (Fc fusion)
[4]
  MFI at 100 nM: 1650
[5]
  MFI at 100 nM: 2000
[6]
  MFI at 100 nM: 1770

## CD155 variant S52M, V57L IgV-Fc (from UniProt P15151 24-139) (Fc fusion)
[4]
  MFI at 100 nM: 1860
[5]
  MFI at 100 nM: 2430
[6]
  MFI at 100 nM: 2010

## CD155 variant S52W IgV-Fc (from UniProt P15151 24-139) (Fc fusion)
[4]
  MFI at 100 nM: 1710
[5]
  MFI at 100 nM: 2040

## CD155 variant S52W, L104E IgV-Fc (from UniProt P15151 24-139) (Fc fusion)
[4]
  MFI at 100 nM: 1630
[5]
  MFI at 100 nM: 1910
[6]
  MFI at 100 nM: 2070

## Wildtype CD155 ECD-Fc (from UniProt P15151 21-343) (Fc fusion)
[4]
  MFI at 100 nM: 99000
[6]
  MFI at 100 nM: 1780

## variant PD-L1 ECD-Fc E54G, M97L, S99G (from UniProt Q9NZQ7 19-238) (Fc fusion)
[8]
  MFI at 20 nM: 51900

## variant PD-L1 ECD-Fc G15A, V129D (from UniProt Q9NZQ7 19-238) (Fc fusion)
[8]
  MFI at 20 nM: 128

## variant PD-L1 ECD-Fc I36S, M97L (from UniProt Q9NZQ7 19-238) (Fc fusion)
[8]
  MFI at 20 nM: 44600

## variant PD-L1 ECD-Fc I36T, M97L, V129D (from UniProt Q9NZQ7 19-238) (Fc fusion)
[8]
  MFI at 20 nM: 50900

## variant PD-L1 ECD-Fc K57R, S99G (from UniProt Q9NZQ7 19-238) (Fc fusion)
[8]
  MFI at 20 nM: 16300

## variant PD-L1 ECD-Fc K57R, S99G, R195G (from UniProt Q9NZQ7 19-238) (Fc fusion)
[8]
  MFI at 20 nM: 11000

## variant PD-L1 ECD-Fc M18V, I98L, L124S, P198T, L206F (from UniProt Q9NZQ7 19-238) (Fc fusion)
[8]
  MFI at 20 nM: 143

## variant PD-L1 ECD-Fc M18V, M97L, T176N, R195G (from UniProt Q9NZQ7 19-238) (Fc fusion)
[8]
  MFI at 20 nM: 45300

## variant PD-L1 ECD-Fc S99G, T185A, R195G, P198T (from UniProt Q9NZQ7 19-238) (Fc fusion)
[8]
  MFI at 20 nM: 22100

## variant PD-L1 ECD-Fc V93E, V129D (from UniProt Q9NZQ7 19-238) (Fc fusion)
[8]
  MFI at 20 nM: 150

## variant PD-L1 ECD-Fc V129D, H202Q (from UniProt Q9NZQ7 19-238) (Fc fusion)
[8]
  MFI at 20 nM: 219

## variant PD-L1 ECD-Fc V129D, P198T (from UniProt Q9NZQ7 19-238) (Fc fusion)
[8]
  MFI at 20 nM: 152

## variant PD-L1 ECD-Fc V129D, T150A (from UniProt Q9NZQ7 19-238) (Fc fusion)
[8]
  MFI at 20 nM: 142
